The results in this text go back to paper PMC3207120.

What all share (conditions): 100 mM Tris-HCl pH 7, 15 mM MgCl2, 37 °C
Substrate in the data set “steady-state kinetics”: O=P(O)(O)OC[C@H]1OC(O)[C@H](O)[C@@H](O)[C@@H]1O
As to the kind of experiment: steady-state kinetics. The format is biochemical, Bacillus subtilis.

Substrate in data set [1]: O=C(CO)[C@@H](O)[C@H](O)COP(=O)(O)O
As to the kind of experiment: purified protein.

Substrate in data set [2]: O=P(O)(O)O[C@H]1O[C@H](CO)[C@H](O)[C@H](O)[C@H]1O
As to the kind of experiment: purified protein.

Substrate in data set [3]: O=[N+]([O-])c1ccc(OP(=O)(O)O)cc1
As to the kind of experiment: purified protein.

B1: AraL (recombinant AraL-His6, pLG11) (Bacillus subtilis subsp. subtilis str. 168; V11M) (protein)
chain: MSPAGILIDLDGTVFRGNELIEGAREAIKTLRRMGKKIVFLSNRGNISRAMCRKKLLGAGIETDVNDIVLSSSVTAAFLKKHYRFSKVWVLGEQGLVDELRLAGVQNASEPKEADWLVISLHETLTYDDLNQAFQAAAGGARIIATNKDRSFPNEDGNAIDVAGMIGAIETSAQAKTELVVGKPSWLMAEAACTAMGLSAHECMIIGDSIESDIAMGKLYGMKSALVLTGSAKQGEQRLYTPDYVLDSIKDVTKLAEEGILI
Consider B1, for which the Michaelis-Menten constant (Km) came to 24.96 ± 4.08 mM in “steady-state kinetics”, 29.14 ± 4.87 mM in “purified protein [1]”, 40.74 ± 6.03 mM in the data set “purified protein [2]” and 50.00 ± 23.32 mM in “purified protein [3]”. Moreover, the kcat worked out at 2.49 ± 0.26 s⁻¹ in the data set “steady-state kinetics”, 2.75 ± 0.26 s⁻¹ in “purified protein [1]”, 4.28 ± 0.4 s⁻¹ in the data set “purified protein [2]” and 0.012 ± 0.0006 s⁻¹ in “purified protein [3]”. Moreover, the specificity constant (kcat/Km) is 99.8 M⁻¹ s⁻¹ in the data set “steady-state kinetics”, 94.3 M⁻¹ s⁻¹ in “purified protein [1]”, 102 M⁻¹ s⁻¹ in “purified protein [2]” and 0.24 M⁻¹ s⁻¹ in the data set “purified protein [3]”.

Broadly, the Km is the concentration of substrate that gives half-maximal velocity. What is called kcat is the number of substrate molecules converted per active site and unit of time at saturation. Broadly, the kcat/Km is the turnover number divided by the Michaelis constant.
